Data as given in paper PMC9872521.

Substrate: NCCc1ccc(O)c(O)c1
Test: cells, lysate or membranes
Conditions: sodium inward-facing conformation favors substrates

B1: human dopamine transporter (hDAT) (Homo sapiens) (protein)
chain: MSKSKCSVGLMSSVVAPAKEPNAVGPKEVELILVKEQNGVQLTSSTLTNPRQSPVEAQDRETWGKKIDFLLSVIGFAVDLANVWRFPYLCYKNGGGAFLVPYLLFMVIAGMPLFYMELALGQFNREGAAGVWKICPILKGVGFTVILISLYVGFFYNVIIAWALHYLFSSFTTELPWIHCNNSWNSPNCSDAHPGDSSGDSSGLNDTFGTTPAAEYFERGVLHLHQSHGIDDLGPPRWQLTACLVLVIVLLYFSLWKGVKTSGKVVWITATMPYVVLTALLLRGVTLPGAIDGIRAYLSVDFYRLCEASVWIDAATQVCFSLGVGFGVLIAFSSYNKFTNNCYRDAIVTTSINSLTSFSSGFVVFSFLGYMAQKHSVPIGDVAKDGPGLIFIIYPEAIATLPLSSAWAVVFFIMLLTLGIDSAMGGMESVITGLIDEFQLLHRHRELFTLFIVLATFLLSLFCVTNGGIYVFTLLDHFAAGTSILFGVLIEAIGVAWFYGVGQFSDDIQQMTGQRPSLYWRLCWKLVSPCFLLFVVVVSIVTFRPPHYGAYIFPDWANALGWVIATSSMAMVPIYAAYKFCSLPGSFREKLAYAIAPEKDRELVDRGEVRQFTLRHWLKV
Km: 2.31 µM
